Results published in PMC4333382, “RNA helicase A activity is inhibited by oncogenic transcription factor EWS-FLI1” (Nucleic Acids Research, 2015).

T1: EWS-FLI1 (UniProt F1JVV7)
T1 chain: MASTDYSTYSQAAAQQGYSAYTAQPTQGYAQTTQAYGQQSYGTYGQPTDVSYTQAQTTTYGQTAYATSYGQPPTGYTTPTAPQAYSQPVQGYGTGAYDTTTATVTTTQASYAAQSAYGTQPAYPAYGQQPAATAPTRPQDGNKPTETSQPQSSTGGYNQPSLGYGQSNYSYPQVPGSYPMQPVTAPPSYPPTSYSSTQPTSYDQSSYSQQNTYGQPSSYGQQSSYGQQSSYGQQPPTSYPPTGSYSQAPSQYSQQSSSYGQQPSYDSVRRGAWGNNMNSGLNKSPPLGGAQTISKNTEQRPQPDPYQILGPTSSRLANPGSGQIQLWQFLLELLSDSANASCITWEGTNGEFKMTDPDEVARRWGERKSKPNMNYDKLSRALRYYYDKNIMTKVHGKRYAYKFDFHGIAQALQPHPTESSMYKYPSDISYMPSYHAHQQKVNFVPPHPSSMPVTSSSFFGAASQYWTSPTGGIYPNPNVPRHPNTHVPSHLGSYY

B1: mut ets-DNA (GGAA to GCTA) (dsDNA)
DNA 1: ATGTAGACCGCTAGTAACTA
DNA 2: TAGTTACTAGCGGTCTACAT
B2: wt ets-DNA (dsDNA)
DNA 1: ATGTAGACCGGAAGTAACTA
DNA 2: TAGTTACTTCCGGTCTACAT

What was measured:
EWS-FLI1 [1] = target: T1, EWS-FLI1; assay: competition; 30 nM EWS-FLI1, competes with 32P HDV RNA (N1?); EMSA: 25 mM HEPES pH 7.4, 80 mM NaCl, 2 mM MgCl2, 2 mM DTT, Superase In, 5 pmol 32P-RNA, 10 min room temperature, 6% native PAGE 0.5x TBE; AFM: 25 mM HEPES pH 7.4, 2 mM MgCl2, 1 mM TCEP, 25 C, 1 min; settings: protein: recombinant; blunt
EWS-FLI1 [2] = target: T1, EWS-FLI1; assay: as above; settings: protein: recombinant; blunt

| Binder | binding signal (EWS-FLI1 [1]) | binding result (EWS-FLI1 [2]) |
| --- | --- | --- |
| B1 | 30 % of wild-type efficiency at displacing RNA | – |
| B2 | – | binds |
